For one protein, Km results are on record in PMC10653809.

Substrate in this series: COc1cc(S(=O)(=O)O)c(C)cc1N=Nc1c(O)ccc2cc(S(=O)(=O)O)ccc12
Briefly: purified protein. The conditions noted are these: 2,000 µM NADH, 20 µM FMN, 20 mM sodium phosphate buffer, 37°C, aerobic.

B1: AzoR (Escherichia coli K-12) (protein)
chain: SKVLVLKSSILAGYSQSNQLSDYFVEQWREKHSADEITVRDLAANPIPVLDGELVGALRPSDAPLTPRQQEALALSDELIAELKAHDVIVIAAPMYNFNISTQLKNYFDLVARAGVTFRYTENGPEGLVTGKKAIVITSRGGIHKDGPTDLVTPYLSTFLGFIGITDVKFVFAEGIAYGPEMAAKAQSDAKAAIDSIVSA
B1: the Michaelis-Menten constant (Km) was determined as 67.7 µM.

As a reminder, the Km is the concentration of substrate that gives half-maximal velocity.
